{"source": "paper PMC11088715", "about": "“CsEXL3 regulate mechanical harvest-related droopy leaves under the transcriptional activation of CsBES1.2 in tea plant”", "key": {"CsBES1.2-MBP [1]": {"biological_target": "T1, CsBES1.2-MBP (Camellia sinensis (cDNA from cv. …, UniProt UPI0010362774 1-322))", "T1 sequence": "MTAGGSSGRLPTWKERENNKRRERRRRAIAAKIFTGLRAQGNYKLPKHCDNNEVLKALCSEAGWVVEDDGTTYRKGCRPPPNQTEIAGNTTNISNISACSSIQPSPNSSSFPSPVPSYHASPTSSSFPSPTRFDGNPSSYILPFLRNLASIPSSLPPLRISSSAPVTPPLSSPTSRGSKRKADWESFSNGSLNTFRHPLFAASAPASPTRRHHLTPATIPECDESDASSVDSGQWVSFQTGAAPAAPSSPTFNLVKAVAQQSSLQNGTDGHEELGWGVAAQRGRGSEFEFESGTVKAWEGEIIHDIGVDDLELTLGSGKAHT", "experiment": "competition; unlabeled mutant vs biotin-P2 probe; did not outcompete; Beyotime Chemiluminescent EMSA Kit; 6.5% polyacrylamide gel, 60 V 65 min; binding buffer, salt, pH and temperature not stated", "settings": "protein: recombinant; tags: MBP (pMAL-c5x); label: unlabeled; blunt"}, "CsBES1.2-MBP [2]": {"biological_target": "T1, CsBES1.2-MBP", "experiment": "EMSA; weaker than P2 E-box probe per text; Beyotime Chemiluminescent EMSA Kit; 6.5% polyacrylamide gel, 60 V 65 min; binding buffer, salt, pH and temperature not stated", "settings": "protein: recombinant; tags: MBP (pMAL-c5x); label: 5' biotin (probe); blunt"}, "CsBES1.2-MBP [3]": {"biological_target": "T1, CsBES1.2-MBP", "experiment": "EMSA; outcompeted by unlabeled probe; stronger than P1 per text; Beyotime Chemiluminescent EMSA Kit; 6.5% polyacrylamide gel, 60 V 65 min; binding buffer, salt, pH and temperature not stated", "settings": "protein: recombinant; tags: MBP (pMAL-c5x); label: 5' biotin (probe); blunt"}}, "data": [{"binder": "Mutant CsEXL3 promoter P2 competitor (dsDNA) DNA 1: TGAATCCAAAAAATGCAGAACT DNA 2: AGTTCTGCATTTTTTGGATTCA", "values": [{"measurement": "binding result", "setting": "CsBES1.2-MBP [1]", "result": "no binding"}]}, {"binder": "CsEXL3 promoter P1 (BRRE-box) probe (dsDNA) DNA 1: GCGAGGCGACGAGGCGGAGG DNA 2: CCTCCGCCTCGTCGCCTCGC", "values": [{"measurement": "binding result", "setting": "CsBES1.2-MBP [2]", "result": "binds"}]}, {"binder": "CsEXL3 promoter P2 (E-box) probe (dsDNA) DNA 1: TGAATCCCACGTGTGCAGAACT DNA 2: AGTTCTGCACACGTGGGATTCA", "values": [{"measurement": "binding result", "setting": "CsBES1.2-MBP [3]", "result": "binds"}]}]}
